Laboratory results from PMC8032703.

Key:
[1] = biological target: recombinant FlaB (Vibrio vulnificus MO6-24/O)
[2] = biological target: FlaBΔN0C0 (truncated FlaB, from L54 to S332) (Vibrio vulnificus MO6-24/O)
[3] = biological target: FlaBΔN1 (truncated FlaB, from K162 to G377) (Vibrio vulnificus MO6-24/O)
[4] = biological target: FlaBΔC1 (truncated FlaB, from M1 to A287) (Vibrio vulnificus MO6-24/O)
[5] = biological target: FlaBΔC0 (truncated FlaB, from M1 to S332) (Vibrio vulnificus MO6-24/O)
[6] = biological target: recombinant FlaB (Vibrio vulnificus MO6-24/O); remark: listed apart in the source
[7] = biological target: recombinant FlaB (Vibrio vulnificus MO6-24/O); remark: listed apart in the source
[8] = biological target: recombinant FlaB (Vibrio vulnificus MO6-24/O); remark: listed apart in the source

## recombinant DegQ (serine protease of the HtrA family) (enzyme)
[1]
  EC50 of rDegQ (0-1.2 μM) proteolysing 50% of 1 μM rFlaB in vitro (SDS-PAGE densitometry), representative experiment: 140 nM
[2]
  averaged EC50 of rDegQ for in vitro proteolysis of 1 μM FlaBΔN0C0: 320 nM
[3]
  averaged EC50 of rDegQ for in vitro proteolysis of 1 μM FlaBΔN1: 420 nM
[4]
  averaged EC50 of rDegQ for in vitro proteolysis of 1 μM FlaBΔC1: 340 nM
[5]
  averaged EC50 of rDegQ for in vitro proteolysis of 1 μM FlaBΔC0: 310 nM
[6]
  averaged EC50 of rDegQ for in vitro proteolysis of 1 μM rFlaB (three independent experiments): 130 nM
[7]
  averaged EC50 of rDegQ for in vitro proteolysis of 1 μM rFlaB, as given for comparison with the FlaC mutant (Fig. 7b): 140 nM

## recombinant FlaJ (flagellin-specific chaperone) (natural protein)
[8]
  protection of 1 μM rFlaB from proteolysis by 1.08 μM rDegQ with rFlaJ 0-6.67 μM; percent of rFlaB left at 0.56 μM FlaJ: 77%
